B1: Transcriptional coactivator YAP1 (Homo sapiens), P46937-3 (parent)
chain: MDPGQQPPPQPAPQGQGQPPSQPPQGQGPPSGPGQPAPAATQAAPQAPPAGHQIVHVRGDSETDLEALFNAVMNPKTANVPQTVPMRLRKLPDSFFKPPEPKSHSRQASTDAGTAGALTPQHVRAHSSPASLQLGAVSPGTLTPTGVVSGPAATPTAQHLRQSSFEIPDDVPLPAGWEMAKTSSGQRYFLNHIDQTTTWQDPRKAMLSQMNVTAPTSPPVQQNMMNSASAMNQRISQSAPVKQPPPLAPQSPQGGVMGGSNSNQQQQMRLQQLQMEKERLRLKQQELLRQVRPQELALRSQLPTLEQDGGTQNPVSSPGMSQELRTMTTNSSDPFLNSGTYHSRDESTDSGLSMSSYSVPRTPDDFLNSVDEMDTGDTINQSTLPSQQNRFPDYLEAIPGTNVDLGTLEGDGMNIEGEELMPSLQEALSSDILNDMESVLAATKLDKESFLTWL

Variants of: B1
Details: with ctnb1_human CTNNB1, P35222
ctnb1_human CTNNB1, P35222, sequence (P35222 whole entry): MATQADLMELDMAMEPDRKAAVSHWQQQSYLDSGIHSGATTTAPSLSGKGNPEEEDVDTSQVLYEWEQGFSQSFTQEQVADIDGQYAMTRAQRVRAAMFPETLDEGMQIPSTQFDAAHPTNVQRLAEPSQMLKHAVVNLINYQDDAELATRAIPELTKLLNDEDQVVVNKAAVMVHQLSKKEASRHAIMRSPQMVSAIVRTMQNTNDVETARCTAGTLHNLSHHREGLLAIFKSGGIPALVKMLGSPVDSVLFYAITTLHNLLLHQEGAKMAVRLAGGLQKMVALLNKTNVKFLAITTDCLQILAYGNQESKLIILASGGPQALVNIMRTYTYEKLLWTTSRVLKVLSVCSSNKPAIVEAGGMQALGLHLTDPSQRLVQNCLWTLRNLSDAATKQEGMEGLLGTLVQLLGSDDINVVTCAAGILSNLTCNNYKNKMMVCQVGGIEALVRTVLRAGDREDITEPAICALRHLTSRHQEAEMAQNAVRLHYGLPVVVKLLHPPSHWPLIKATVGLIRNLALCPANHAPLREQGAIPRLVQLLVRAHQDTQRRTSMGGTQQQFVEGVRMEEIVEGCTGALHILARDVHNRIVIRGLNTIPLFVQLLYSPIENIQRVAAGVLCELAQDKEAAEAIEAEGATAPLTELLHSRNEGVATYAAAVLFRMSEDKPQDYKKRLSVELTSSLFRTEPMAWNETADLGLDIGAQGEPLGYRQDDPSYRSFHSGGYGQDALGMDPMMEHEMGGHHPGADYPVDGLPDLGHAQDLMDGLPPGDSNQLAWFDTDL

effect of a mutation on the interaction | Variant
increasing interaction strength | Y357F
